Test results as given in patent publication US10006010B2, “Cytochrome P450 fusion protein” (The University of York, priority 2014, dated 2018).

B1: CYP82Y2 module: N-terminal CYP82Y2 module of STORR (codon optimized SEQ ID NO 32) expressed with opium poppy CPR redox partner in S. cerevisiae (protein)
chain: MELQYISYFQPTSSVVALLLALVSILSSVVVLRKTFLNNYSSSPASSTKTAVLSHQRQQSCALPISGLLHIFMNKNGLIHVTLGNMADKYGPIFSFPTGSHRTLVVSSWEMVKECFTGNNDTAFSNRPIPLAFKTIFYACGGIDSYGLSSVPYGKYWRELRKVCVHNLLSNQQLLKFRHLIISQVDTSFNKLYELCKNSEDNHGNYTTTTTTAAGMVRIDDWLAELSFNVIGRIVCGFQSGPKTGAPSRVEQFKEAINEASYFMSTSPVSDNVPMLGWIDQLTGLTRNMKHCGKKLDLVVESIINDHRQKRRFSRTKGGDEKDDEQDDFIDICLSIMEQPQLPGNNNPSQIPIKSIVLDMIGGGTDTTKLTTIWTLSLLLNNPHVLDKAKQEVDAHFRTKRRSTNDAAAAVVDFDDIRNLVYIQAIIKESMRLYPASPVVERLSGEDCVVGGFHVPAGTRLWANVWKMQRDPKVWDDPLVFRPDRFLSDEQKMVDVRGQNYELLPFGAGRRVCPGVSFSLDLMQLVLTRLILEFEMKSPSGKVDMTATPGLMSYKVIPLDILLTHRRIKPCVQSAASERD
modifications: co-expressed with poppy CPR in yeast; Yeast codon optimized CYP82Y2
B2: STORR fusion: Full length CYP82Y2-oxidoreductase fusion protein (SEQ ID NO 1; codon optimized SEQ ID NO 31) expressed with PsCPR in S. cerevisiae (protein, listed as Papaver somniferum)
chain: MELQYISYFQPTSSVVALLLALVSILSSVVVLRKTFLNNYSSSPASSTKTAVLSHQRQQSCALPISGLLHIFMNKNGLIHVTLGNMADKYGPIFSFPTGSHRTLVVSSWEMVKECFTGNNDTAFSNRPIPLAFKTIFYACGGIDSYGLSSVPYGKYWRELRKVCVHNLLSNQQLLKFRHLIISQVDTSFNKLYELCKNSEDNHGNYTTTTTTAAGMVRIDDWLAELSFNVIGRIVCGFQSGPKTGAPSRVEQFKEAINEASYFMSTSPVSDNVPMLGWIDQLTGLTRNMKHCGKKLDLVVESIINDHRQKRRFSRTKGGDEKDDEQDDFIDICLSIMEQPQLPGNNNPSQIPIKSIVLDMIGGGTDTTKLTTIWTLSLLLNNPHVLDKAKQEVDAHFRTKRRSTNDAAAAVVDFDDIRNLVYIQAIIKESMRLYPASPVVERLSGEDCVVGGFHVPAGTRLWANVWKMQRDPKVWDDPLVFRPDRFLSDEQKMVDVRGQNYELLPFGAGRRVCPGVSFSLDLMQLVLTRLILEFEMKSPSGKVDMTATPGLMSYKVIPLDILLTHRRIKPCVQSAASERDMESSGVPVITLGSGKVMPVLGMGTFEKVGKGSERERLAILKAIEVGYRYFDTAAAYETEEVLGEAIAEALQLGLVKSRDELFISSMLWCTDAHADRVLLALQNSLRNLKLEYVDLYMLPFPASLKPGKITMDIPEEDICRMDYRSVWAAMEECQNLGFTKSIGVSNFSCKKLQELMATANIPPAVNQVEMSPAFQQKKLREYCNANNILVSAISVLGSNGTPWGSNAVLGSEVLKKIAMAKGKSVAQVSMRWVYEQGASLVVKSFSEERLRENLNIFDWELTKEDHEKIGEIPQCRILSAYFLVSPNGPFKSQEELWDDEA
modifications: co-expressed with PsCPR

Columns and labels:
[1] = Enzyme assay on soluble/microsomal preparations of S. cerevisiae expressing STORR fusion or modules, substrate 1,2-dehydroreticuline; type: biochemical; conditions: soluble or microsomal preparations from S. cerevisiae; 100 μM substrate, 1 mM NADPH, 37° C. 3 hours
Text: (§1) Genscript created synthetic DNA sequences were created for PsCPR [Genbank accession AAC05021, (Rosco A. et al. (1997) Arch. Biochem. Biophys. 348, 369-77), the full length STORR (CYP82Y2-Oxidoreductatse (“Oxired”)) protein, the N-terminal CYP82Y2 module and C-terminal oxidoreductase (Oxidoreductase) module, that were codon optimised for expression is Saccharomyces cerevisiae. The codon-optimized sequences are provided with the SEQ ID NO 30-33.
(§2) Expression vector pESC-TRP::soloxired was created by digesting the corresponding PCR product with NotI and PacI and inserting this behind the GAL10 promoter of pESC-TRP. pESC-TRP::CPR was created by digesting the corresponding PCR product with BamHI and XhoI and inserting this behind the GAL1 promoter of pESC-TRP. This was then used to created pESC-TRP::CPR::CYP82Y2 and pESC-TRP::CPR::CYP82Y2-Oxidoreductase. These plasmids were then transformed in S. cerevisiae G175 (Sorger D. et al. (2004) J. Biol. Chem. 279, 31190-6) using lithium acetate protocol (Geitz R. D. and Woods R. A. (2002) Methods in Enzymology 350, 87-96). Yeasts were cultivated in Synthetic Defined (SD) medium composed of 2% carbon source, 0.5% ammonium sulfate, 1.7 g L^−1 yeast nitrogen base (without amino acids and ammonium sulfate) and 1.92 g L^−1 or tryptophan drop-out supplement (Sigma-Aldrich, Gillingham, UK). Cultures grown using glucose as a carbon source were used to inoculate 200 ml cultures with raffinose as a carbon source to an OD 600 nm of 0.10 in 1 L conical flasks. […]
(§3) Enzymes assays were set up in 250 μL volumes containing final concentrations of 50 mM Bis-tris propane buffer, 1 mM NADPH and 100 μM of substrate. […] The extract was then dissolved in 100 μL of 50:50:0.1 hexane/ethanol/diethylamine and analysed by the chiral HPLC method to determine the relative amounts of (R)- and (S)-reticuline.
(§4) Poppy capsules were processed and analysed by UPLC-MS and R-scripts as previously described (“the standard method”; (Winzer T. et al. (2012) Science 336, 1704-8)). […]

[2] = Enzyme assay on microsomal preparations of S. cerevisiae expressing STORR fusion or modules, substrate (S)-reticuline; type: biochemical
Text: as §1, §2, §3, §4

Molecule	conversion efficiency of 1,2-dehydroreticuline to (R)-reticuline [1]	conversion of (S)-reticuline to 1,2-dehydroreticuline ([2]; microsomal preparations from S. cerevisiae, with CPR redox partner, 100 μM substrate, 37° C. 3 hours)	accumulation of 1,2-dehydroreticuline during conversion of (S)- to (R)-reticuline ([2]; microsomal fractions harboring the fusion protein)	added (S)-reticuline converted to (R)-reticuline ([2]; microsomal preparations from S. cerevisiae, with CPR, 100 μM substrate, 37° C. 3 hours)
B1	not	~100%		
B2	100%		no detectable accumulation	about 20%
